Laboratory results: article PMC12418388 (2025)

Biological target: T1, DDX6 (Homo sapiens, UniProt P26196)
T1 chain: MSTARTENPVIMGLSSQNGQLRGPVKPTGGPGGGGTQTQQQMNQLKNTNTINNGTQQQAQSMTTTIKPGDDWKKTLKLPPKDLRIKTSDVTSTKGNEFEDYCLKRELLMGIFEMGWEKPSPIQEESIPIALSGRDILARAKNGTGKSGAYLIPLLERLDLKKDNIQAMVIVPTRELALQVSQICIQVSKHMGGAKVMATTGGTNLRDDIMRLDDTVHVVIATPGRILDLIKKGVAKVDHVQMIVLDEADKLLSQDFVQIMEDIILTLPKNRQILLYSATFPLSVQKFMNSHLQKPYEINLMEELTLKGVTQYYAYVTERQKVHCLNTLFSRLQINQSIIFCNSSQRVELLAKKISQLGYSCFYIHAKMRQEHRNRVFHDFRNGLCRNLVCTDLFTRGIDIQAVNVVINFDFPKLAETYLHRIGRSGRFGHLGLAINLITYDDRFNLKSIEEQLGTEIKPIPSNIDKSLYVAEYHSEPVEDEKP
Assay: BLI

Kd: 389 nM
B1: DDX3X (protein)
chain: SHVAVENALGLDQQFAGLDLNSSDNQSGGSTASKGRYIPPHLRNREATKGFYDKDSSGWSSSKDKDAYSSFGSRSDSRGKSSFFSDRGSGSRGRFDDRGRSDYDGIGSRGDRSGFGKFERGGNSRWCDKSDEDDWSKPLPPSERLEQELFSGGNTGINFEKYDDIPVEATGNNCPPHIESFSDVEMGEIIMGNIELTRYTRPTPVQKHAIPIIKEKRDLMACAQTGSGKTAAFLLPILSQIYSDGPGEALRAMKENGRYGRRKQYPISLVLAPTRELAVQIYEEARKFSYRSRVRPCVVYGGADIGQQIRDLERGCHLLVATPGRLVDMMERGKIGLDFCKYLVLDEADRMLDMGFEPQIRRIVEQDTMPPKGVRHTMMFSATFPKEIQMLARDFLDEYIFLAVGRVGSTSENITQKVVWVEESDKRSFLLDLLNATGKDSLTLVFVETKKGADSLEDFLYHEGYACTSIHGDRSQRDREEALHQFRSGKSPILVATAVAARGLDISNVKHVINFDLPSDIEEYVHRIGRTGRVGNLGLATSFFNERNINITKDLLDLLVEAKQEVPSWLENMAYEHHYKGSSRGRSKSSRFSGGFGARDYRQSSGASSSSFSSSRASSSRSGGGGHGSSRGFGGGGYGGFYNSDGYGGNYNSQGVDWWGN
